Laboratory results: patent publication US20250205353A1 (SYNAFFIX B V, published 2025)

T1: Nectin-4 on SK-BR-3 cells (UniProt Q96NY8 32-510, limits assumed)
T1 sequence (looked up): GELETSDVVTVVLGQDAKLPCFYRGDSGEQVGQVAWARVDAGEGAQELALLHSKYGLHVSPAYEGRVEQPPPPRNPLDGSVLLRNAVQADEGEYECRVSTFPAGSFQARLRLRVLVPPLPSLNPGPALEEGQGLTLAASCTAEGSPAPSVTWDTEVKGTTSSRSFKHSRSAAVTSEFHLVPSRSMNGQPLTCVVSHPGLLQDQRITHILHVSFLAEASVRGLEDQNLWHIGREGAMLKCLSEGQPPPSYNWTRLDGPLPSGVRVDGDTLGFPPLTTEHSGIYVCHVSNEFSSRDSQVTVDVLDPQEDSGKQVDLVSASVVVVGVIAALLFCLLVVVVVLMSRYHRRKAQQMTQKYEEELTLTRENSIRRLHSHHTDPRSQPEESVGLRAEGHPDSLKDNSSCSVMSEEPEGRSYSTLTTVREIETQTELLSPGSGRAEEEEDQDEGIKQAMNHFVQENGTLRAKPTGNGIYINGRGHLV

T2: Human Nectin-4 (PVRL4 Protein, ECD, His Tag) (human, UniProt Q96NY8 32-349)
T2 construct: extracellular domain; Recombinant protein captured on nickel NTA plates; also called hNectin-4; PVRL4-His; not shown: His tag
T2 sequence (looked up): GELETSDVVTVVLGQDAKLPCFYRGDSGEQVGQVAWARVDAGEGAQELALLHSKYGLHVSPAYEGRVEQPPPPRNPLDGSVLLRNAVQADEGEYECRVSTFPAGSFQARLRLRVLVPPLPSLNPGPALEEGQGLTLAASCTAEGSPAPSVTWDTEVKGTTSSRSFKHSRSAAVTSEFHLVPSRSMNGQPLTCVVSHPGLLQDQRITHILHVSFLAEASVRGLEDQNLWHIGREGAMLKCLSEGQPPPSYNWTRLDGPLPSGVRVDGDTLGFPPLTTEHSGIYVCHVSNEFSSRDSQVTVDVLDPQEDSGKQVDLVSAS


Assays:
[1] = biological target: T1, Nectin-4 on SK-BR-3 cells; experiment: cell-based or functional assay
[2] = biological target: T2, Human Nectin-4 (PVRL4 Protein, ECD, His …); experiment: ELISA; His-tagged Nectin-4 ECD on nickel NTA plates, detection with anti-human IgG-HRP
Protocol: Nickel NTA plates (Pierce™ Nickel coated plated, ThermoScientific™) were washed three times prior to use. Human Nectin-4 (PVRL4 Protein, ECD, His Tag) was dissolved at a concentration of […] in 0.1% BSA in PBS (PBA). 100 μL was added to each well and incubated while shaking for 1 hour at room temperature. After removal, the plate was washed 3x with 0.05% Tween-20 in PBS (washing buffer). ADCs were diluted in 0.1% PBA to a final concentration of 8 μg/mL and 100 μL was added to each well (in triplo). ADCs were incubated for 1 h at room temperature. Prior to the addition of 100 μL 1:1000 dilution of secondary antibody (Goat anti-human IgG, HRP conjugate, Invitrogen) the plate was washed 3x with washing buffer. The plate was incubated again for 1 h at room temperature and subsequently washed 3x with washing buffer and 3x with PBS. Finally, 100 μL TMB ELISA substrate (1 Step™ Turbo TMB ELISA substrate, ThermoScientific™) was added and incubated for 1 minute. The absorbance of the colorimetric signal was measured with Infinite® M1000 (Tecan) at 652 nm. Data was plotted corrected for the background (see FIG. 8).

binding result [2] | Binder | IC50 (nM), in vitro cytotoxicity on SK-BR-3 cells (ATPlite luminescence) [1] [nM]
– | Enfortumab YTE-4 (other, linker-payload 4 (BCN-HS-(vc-PABC-MMAE)2) clicked to 6-N3-GalNAc on the trimmed core GlcNAc of the heavy-chain glycan; average DAR 3.67) heavy: EVQLVESGGGLVQPGGSLRLSCAASGFTFSSYNMNWVRQAPGKGLEWVSYISSSSSTIYYADSVKGRFTISRDNAKNSLSLQMNSLRDEDTAVYYCARAYYYGMDVWGQGTTVTVSSASTKGPSVFPLAPSSKSTSGGTAALGCLVKDYFPEPVTVSWNSGALTSGVHTFPAVLQSSGLYSLSSVVTVPSSSLGTQTYICNVNHKPSNTKVDKRVEPKSCDKTHTCPPCPAPELLGGPSVFLFPPKPKDTLYITREPEVTCVVVDVSHEDPEVKFNWYVDGVEVHNAKTKPREEQYNSTYRVVSVLTVLHQDWLNGKEYKCKVSNKALPAPIEKTISKAKGQPREPQVYTLPPSREEMTKNQVSLTCLVKGFYPSDIAVEWESNGQPENNYKTTPPVLDSDGSFFLYSKLTVDKSRWQQGNVFSCSVMHEALHNHYTQKSLSLSPGK light: DIQMTQSPSSVSASVGDRVTITCRASQGISGWLAWYQQKPGKAPKFLIYAASTLQSGVPSRFSGSGSGTDFTLTISSLQPEDFATYYCQQANSFPPTFGGGTKVEIKRTVAAPSVFIFPPSDEQLKSGTASVVCLLNNFYPREAKVQWKVDNALQSGNSQESVTEQDSKDSTYSLSSTLTLSKADYEKHKVYACEVTHQGLSSPVTKSFNRGEC | 0.05
binds | enfortumab (I) (antibody, human IgG1, kappa, IgG transiently expressed in CHO K1 cells; also called Ha22-2(2,4)6.1) heavy: not shown light: DIQMTQSPSSVSASVGDRVTITCRASQGISGWLAWYQQKPGKAPKFLIYAASTLQSGVPSRFSGSGSGTDFTLTISSLQPEDFATYYCQQANSFPPTFGGGTKVEIKRTVAAPSVFIFPPSDEQLKSGTASVVCLLNNFYPREAKVQWKVDNALQSGNSQESVTEQDSKDSTYSLSSTLTLSKADYEKHKVYACEVTHQGLSSPVTKSFNRGEC | –
binds | enfortumab YTE (II) (antibody, human IgG1, kappa, also called enfortumab YTE mutant) heavy: EVQLVESGGGLVQPGGSLRLSCAASGFTFSSYNMNWVRQAPGKGLEWVSYISSSSSTIYYADSVKGRFTISRDNAKNSLSLQMNSLRDEDTAVYYCARAYYYGMDVWGQGTTVTVSSASTKGPSVFPLAPSSKSTSGGTAALGCLVKDYFPEPVTVSWNSGALTSGVHTFPAVLQSSGLYSLSSVVTVPSSSLGTQTYICNVNHKPSNTKVDKRVEPKSCDKTHTCPPCPAPELLGGPSVFLFPPKPKDTLYITREPEVTCVVVDVSHEDPEVKFNWYVDGVEVHNAKTKPREEQYNSTYRVVSVLTVLHQDWLNGKEYKCKVSNKALPAPIEKTISKAKGQPREPQVYTLPPSREEMTKNQVSLTCLVKGFYPSDIAVEWESNGQPENNYKTTPPVLDSDGSFFLYSKLTVDKSRWQQGNVFSCSVMHEALHNHYTQKSLSLSPGK light: DIQMTQSPSSVSASVGDRVTITCRASQGISGWLAWYQQKPGKAPKFLIYAASTLQSGVPSRFSGSGSGTDFTLTISSLQPEDFATYYCQQANSFPPTFGGGTKVEIKRTVAAPSVFIFPPSDEQLKSGTASVVCLLNNFYPREAKVQWKVDNALQSGNSQESVTEQDSKDSTYSLSSTLTLSKADYEKHKVYACEVTHQGLSSPVTKSFNRGEC | –
